50 sequences from the domain aggregation screens of Martell et al. (2025) can be followed below.

This series can be described thus: soluble fraction after stress (log2 fold change); higher = more stays soluble; pooled small domains, quantitative proteomics. The settings on record: stress: 75 degC.
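Further: 20 min heating vs room temperature control held 20 min.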

Consider “HMAAAQILRAAVLRVPAEETMRFVTETPELRRYLGASLGPTAAIVRPGQEQNLAAALQSHGILVEFDE”, for which the “soluble fraction (log2)” value was -0.0423.
Consider “HMAADLIGLEARVTLPLTEDQRGFIETSVRGSLVRRAALSASGRLDRGQRVVILRSEGTTLIVDAL”, for which the “soluble fraction (log2)” value is -3.37.
On to “HMAADRRKAERPLIDGQAVMDRFEVGPGPMVGKALKFLLALKRAEPDLDLAGTEERLDAWWNEQL”, for which the “soluble fraction (log2)” value turned out to be 0.0606.
The figure for “HMAAEFERKNGIVYFFHSSEKPHLNYPHVHARYGEDTISISLRDFTVIGSFSSKKKQKEAVEYVKNK” is -0.829; for “HMAAEPDQQLIKPASDPVLRTMKIEELMKMSEQVKIQMSKAAKNFDYLEAARLRDEHFALENLIKLRS” it is -0.106; for “HMAAGELSGEALIALIERHPMALSALATTFGHSESDLRAFVEPLARQGRLRLFESQGTLFVGGIG” it is -0.5.
Regarding “HMAAHHIILEEREQLSVSGVEEVESFDENTIVMLTNRGTLIVRGEELHIEKLSLDGGDLRVEGSIDSLTYE”, the “soluble fraction (log2)” value is -0.465.
Take “HMAAHWANFLEALRAGRARRVLVARGVEGWLLKELERLGAPYTLVPRIELDTLLRTTHHQGIAAEVE”: the “soluble fraction (log2)” value is -1.46.
As for “HMAAPELLTVRERQVAALISDGLSNQQIAHRLHLEVTTVKAHIGSIFNRLDMNNRVQIAIWAHDRQLVFS”, the figure is -0.161; as for “HMAAQDIILKRNAEQIEAIVKEITDTDVKYRKFTNTEGVTYSIRRSEVFSITYENGTMDLFA”, 0.248; as for “HMAAQDLIVKTDASQVEARVLEISPDAVRYKRFSNPDGPTYVLPVAEIRYIRYANGEVEYYA”, -0.624.
“HMAAQLAHVPAVTGRPLAEAQRILADNRLNAQVTQQPVAEPKLDGVVIAQKITEGTRTMRGATVPLIVGKY”: the “soluble fraction (log2)” value was -0.00421.
Regarding “HMAASGTVNSGGDPLRVRADPNTSSQILTKLSDGTQVEVLEQAENGWYKIAHEGISGFVSGEYLVVH”, the “soluble fraction (log2)” value was 0.0197.
The figure for “HMAAVAPPVLERIASDLATRFAGTLSPETVDRYVRESYHLLAERAGITRYLPSLTARFAGDRLDA” is 0.0295; for “HMAAVEDLPVKSVNGKKYHYYTVQPKESLYSLSHKLGISRQEIIKYNPGVEDGLKAYEDLLFPYTPK” it is 0.192.
In the case of “HMAAVSTDEEFAALGIPAEWIPVLKSNGFQTVESLKKVAPGALFNQLGGLRKKNKLEIAMPSLDQVKAWLA”, the “soluble fraction (log2)” value amounted to 0.333.
The figure for “HMADDFISTLFSEGIIIDTEVKQFAERQGSPLQFVRHIASNLPEPRDIITMGEVRSVMREGA” is -0.00121.
“HMADEEEIMVPQVVGKTYDEAKSELENAGFKVEKNEKTSDKASGTVISQSINGGAKKGTSVTLTVSKGN”: the “soluble fraction (log2)” value came to 0.0356.
Take “HMADFYEVLGVERNASSDQIKRAYRKLARELHPDVNLDPVAQNRFKEVTEAYEVLSDPNKRSNFDRG”: the “soluble fraction (log2)” value was 0.0366.
As for “HMADGEWAEMQRQLTAAGLLVVGRAAQERIQRLSDISPLIEAAQRSNVVMLSERTVDEVLTLVPT”, the figure is -0.225.
As for “HMADGTSIYAEREVLYVTSPTANTAKVYNVSGALVRTMTLSAGQTVRTALPAGFYVVALGNGNTHKVIV”, the figure is -2.4.
As for “HMADKSLLELPGLDGDKVSALVTAGVRNVNDLADLATDELVEKTGFDEKTAADLIIAARAVVY”, the figure is 0.43.
Take “HMADLNQTDIDSITKSVGGVEQYKSLMDWAGKTLSQDAIDSFDDLVNTGNKGSIQLAVNGLVAQYQNDN”: the “soluble fraction (log2)” value was 0.167.
The figure for “HMADMKIHLRPYAHDTNRWHVDIRLMHPTAATEIRKRLVAPAGLSEAQARAWGERQVPTILGKALGVI” is -1.65; for “HMADNILPAQTDAIKALATENGFSNESLEKYLIENYGTTIYGLSRNQGIQIINLFQSENPPKP” it is 0.277.
For “HMADQIIEGILGKEGGYVNNPNDKGGPTRWGITQTTARAYGYSGDMKALPRDTAKAIYLSQYWT”, the “soluble fraction (log2)” value was -0.0711.
As for “HMADTPQAYIRQMVQEAGADGIMLSTITDRLRARFKDFKVRDLGYAQMRQYMASTGTYDLEKSGRNFRVHL”, the figure is -1.06.
The figure for “HMADTSLDHLGVLVRHASDVDAWAEFFENRGVTLASQPRTHRDGARSFYVDDPDGNRVQVIYHPPI” is -0.779; for “HMADWTETELAALRRAYASGTTRVSYDGKSVDYGSAEDLLSRIRTLQGAASDVAADAVAAVDA” it is -0.0473; for “HMADYSMDDNAWNAKKADIDEWFEANPDFSANKAITDGLFSIGDSQVEMRKRYWASIAGVFAGLPNSPIG” it is 0.0121.
The figure for “HMAEANTEADFVAIGVRAELLPILQKLGVHTIEQLKGIKATKLFNDIPGMRKKLKLDAVQNPTLQEIEGWL” is -0.146; for “HMAEAPGSVELLAERLRPWWEIHGGEWGSKTKALRFLFGDQAPVAGSYWRALEAAIAQIESTT” it is -0.692.
As to “HMAEKNALWEEDAVYAADSSALARDGYDAIVRTDKGGKKGYLVVGTGGRERFMPLQTLVMLGYLKK”, the “soluble fraction (log2)” value is -0.433.
As for “HMAEKRTAIITTARADIRQKPEATAPLAFEAVKDVVLELTDKPADGWVRVKHRDGSTGYIRINQI”, the figure is 0.0638.
With “HMAELAKAKLDAAVQVALLKAGALDTDYLAYKLQGMDGVALDDKGSLTGWDTTLETLKSQYPTQFA”, the “soluble fraction (log2)” value was -0.368.
The figure for “HMAEPTLNERLREALSDPAKLKIAKAIKAKYPIITARDIDTFLNMHEKDIENGADPMDEFEEFFHANY” is 0.201.
As for “HMAEPYDEDKVMEHLYIKGKDVVIAHLKHLKEHNEHVWLKKGVEWMQKNQDRLGFDMMEVIYVVHNH”, the figure is -0.833.
The figure for “HMAEQEELDAIRPDLDGQEIMDILGIKPGREVGAARNFLLELRLDEGPLGYDEAVSRLLTWWAERT” is -0.0583.
As for “HMAETLLWADAAQEGLNRIVAAQPILVRISAAKRLRDASEQAAKAAGVSTVEIGHVQHASESLQFGDA”, the “soluble fraction (log2)” value came to 0.0809.
As for “HMAETLRLVGATNLNTLARARHPDDLAARNEFRRAIAQANPALFAGKSKVGSVSLPAGTVLALPPEV”, the figure is 0.0163.
For the sequence “HMAEVDDESIKLYDGGYQSNTTKSRLNALLSEFGYDTEHVFQKQFEWFISIFDLTEKAMRTVPFSNGMRL”, the “soluble fraction (log2)” value was determined as 0.0627.
As for “HMAEVGDFTLAELIKVLFNEAGVLKAPVELRNDNTGGLQYRVGAYTDSETGWETIASIADLKGA”, the figure is -0.734; as for “HMAEWLLVQLTNGNWFYGEVIEKTDATIVLNTDILGKVSIQKLDIRRSISGPLTAAKRQEIEDSERAKD”, -1.65.
In the case of “HMAFDDAHYKDMITSYLKKFKKGNRSEIENLIIPKLSEVLVEKQKKDKVKNLLQALRKDNQIRLKGKYWYL”, the “soluble fraction (log2)” value worked out at 0.422.
In the case of “HMAFIEADIGKRIKSLRNKKRITLESLAAETGFTKGYLSKVETSEKAPPVSTLGSIARALGVSISTLLGE”, the “soluble fraction (log2)” value was -1.31.
As to “HMAFKDDDVQKAYDRYMDRYGELSVLYSDNGLKVDDDLFYKNNIPPNGKFTKEFFDELYELVNMEFINNY”, the “soluble fraction (log2)” value was -0.173.
As for “HMAFRLPNGYGTIRRLTGNRRKPYVALVNPTQVFDDEKGTSHYKYDLLGTFAEKIDAYNAVMQYHKSPGGL”, the figure is -1.13.
As for “HMAGAPANLAARLREQILQGAYHDGQRLPAERHLAAEHGVSRGTVREALRLLEQGALLTRKRGSGSYVTYP”, the figure is -0.516.
The figure for “HMAGDVVVEVVGKVRDPQVVTLPKGSRVQDALEAAGGVKPGVNTTDQNLARLLVDGEQIRIGLSS” is 0.107; for “HMAGFGDSLEKMSDAVEALKLLMSTEDARNDQNIQKIARELKDVFNKYRTHLRKSYPDQYDRIKSTL” it is -0.742.
